For 66 molecules, peptide exchange yield results are on record in patent US20200087364A1 (IMMATICS BIOTECHNOLOGIES, published 2020).

In the experiment the target is T1, HLA-A*01:01 (human).
T1 construct: MHC class I monomer first loaded with a UV-sensitive peptide (not identified) that is cleaved by UV irradiation and exchanged for the tested peptide; captured on streptavidin plates, detected with anti-β2m; also called peptide-receptive MHC molecules
Nature of the experiment: UV-ligand exchange, anti-b2m ELISA. In a few lines: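 Peptide–MHC complexes made by UV-ligand exchange of a UV-cleavable peptide; exchange yield measured by ELISA on streptavidin-coated plates, samples diluted 100-fold, 1 h 37 °C. Detection with 2 ug/ml HRP anti-β2m, TMB, A450; refolded HLA-A*02:01/MLA-001 monomer standards 15-500 ng/ml.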
On the technique in general: In an ELISA, binding on a coated surface is turned into a signal by an enzyme label.

B1: ESQTCASDY (peptide)
peptide: ESQTCASDY
In turn, B1 had a peptide exchange yield of 50 to 75%.

B2: ETILVSSSY (peptide)
peptide: ETILVSSSY
Molecule B2 had a peptide exchange yield of 20 to 50%.

B3: TLEDLDNLYNY (peptide)
peptide: TLEDLDNLYNY
Molecule B3 had a peptide exchange yield of 50 to 75%.

B4: LMTVLLKY (peptide)
peptide: LMTVLLKY
In turn, B4 displayed a peptide exchange yield of 50 to 75%.

B5: VTDGINPLI (peptide)
peptide: VTDGINPLI
For B5, the peptide exchange yield lay within 20 to 50%.

B6: FSENLIYTYI (peptide)
peptide: FSENLIYTYI
With B6, the peptide exchange yield was in the range of 20 to 50%.

B7: FGTTPAAEYF (peptide)
peptide: FGTTPAAEYF
With B7, the peptide exchange yield lay in the range of 20 to 50%.

B8: YMTSMALNY (peptide)
peptide: YMTSMALNY
Turning to B8, the peptide exchange yield was 50 to 75%.

B9: VLKIELETY (peptide)
peptide: VLKIELETY
Molecule B9 had a peptide exchange yield of 50 to 75%.

B10: DCMDTEGSYM (peptide)
peptide: DCMDTEGSYM
Molecule B10 displayed a peptide exchange yield of 20 to 50%.

B11: LSDIDSRYI (peptide)
peptide: LSDIDSRYI
On to B11, for which the peptide exchange yield fell in the range of 20 to 50%.

B12: GQRLDEAMISY (peptide)
peptide: GQRLDEAMISY
With B12, the peptide exchange yield lay in the range of 50 to 75%.

B13: FYLSTPENYHY (peptide)
peptide: FYLSTPENYHY
In the case of B13, the peptide exchange yield was 50 to 75%.

B14: NVKHFLNDLY (peptide)
peptide: NVKHFLNDLY
Turning to B14, the peptide exchange yield was 50 to 75%.

B15: TTEMVSNESVDY (peptide)
peptide: TTEMVSNESVDY
In the case of B15, the peptide exchange yield is > 75%.

B16: HMLAAMAY (peptide)
peptide: HMLAAMAY
Molecule B16 showed a peptide exchange yield of 20 to 50%.

B17: ENSIEDLQY (peptide)
peptide: ENSIEDLQY
Molecule B17 came in with a peptide exchange yield of 50 to 75%.

B18: VSDHLQAGMLGQY (peptide)
peptide: VSDHLQAGMLGQY
On to B18, for which the peptide exchange yield lay within 50 to 75%.

B19: EVDSVALSL (peptide)
peptide: EVDSVALSL
Take B19: the peptide exchange yield was in the range of 20 to 50%.

B20: DTDDRELRY (peptide)
peptide: DTDDRELRY
With B20, the peptide exchange yield fell in the range of 50 to 75%.

B21: YADIHGDLL (peptide)
peptide: YADIHGDLL
For the molecule B21, the peptide exchange yield is 50 to 75%.

B22: VLPHHSEGACVY (peptide)
peptide: VLPHHSEGACVY
As for B22, the peptide exchange yield fell in the range of 50 to 75%.

B23: VTTDKPRAY (peptide)
peptide: VTTDKPRAY
B23 showed a peptide exchange yield of 20 to 50%.

B24: YRDPVFVSL (peptide)
peptide: YRDPVFVSL
B24 registered a peptide exchange yield of 20 to 50%.

B25: ATDMEGNLNY (peptide)
peptide: ATDMEGNLNY
As for B25, the peptide exchange yield is 50 to 75%.

B26: YTSHEDIGY (peptide)
peptide: YTSHEDIGY
Regarding B26, the peptide exchange yield was > 75%.

B27: LPSPAATIWDY (peptide)
peptide: LPSPAATIWDY
B27 gave a peptide exchange yield of 50 to 75%.

B28: PSEVPVDSHY (peptide)
peptide: PSEVPVDSHY
In the case of B28, the peptide exchange yield was > 75%.

B29: KSFETTVRY (peptide)
peptide: KSFETTVRY
On to B29, for which the peptide exchange yield lay in the range of 20 to 50%.

B30: TSDVTGSLTY (peptide)
peptide: TSDVTGSLTY
On to B30, for which the peptide exchange yield is > 75%.

B31: ASDDFRSKY (peptide)
peptide: ASDDFRSKY
As for B31, the peptide exchange yield was in the range of 50 to 75%.

B32: GQFTGTAGACRY (peptide)
peptide: GQFTGTAGACRY
For the molecule B32, the peptide exchange yield is 20 to 50%.

B33: LTDSFLLRF (peptide)
peptide: LTDSFLLRF
On to B33, for which the peptide exchange yield was > 75%.

B34: FTDPHIITF (peptide)
peptide: FTDPHIITF
Regarding B34, the peptide exchange yield was > 75%.

B35: VAEPPVVCSY (peptide)
peptide: VAEPPVVCSY
Molecule B35 displayed a peptide exchange yield of 20 to 50%.

B36: QAMPSWPTAAY (peptide)
peptide: QAMPSWPTAAY
As to B36, the peptide exchange yield fell in the range of 20 to 50%.

B37: KPTEDSANVY (peptide)
peptide: KPTEDSANVY
Molecule B37 yielded a peptide exchange yield of 50 to 75%.

B38: GFGGLSSQGVYY (peptide)
peptide: GFGGLSSQGVYY
Molecule B38 showed a peptide exchange yield of 50 to 75%.

B39: VLDFAPPGASAY (peptide)
peptide: VLDFAPPGASAY
As for B39, the peptide exchange yield is > 75%.

B40: EDLLEVLDMY (peptide)
peptide: EDLLEVLDMY
Regarding B40, the peptide exchange yield lay in the range of 20 to 50%.

B41: YTCEECGQAF (peptide)
peptide: YTCEECGQAF
Regarding B41, the peptide exchange yield lay in the range of 20 to 50%.

B42: CGPNEINHFY (peptide)
peptide: CGPNEINHFY
Molecule B42 registered a peptide exchange yield of 20 to 50%.

B43: TCSHTFVYY (peptide)
peptide: TCSHTFVYY
Turning to B43, the peptide exchange yield was 20 to 50%.

B44: IPQDECLRY (peptide)
peptide: IPQDECLRY
For the molecule B44, the peptide exchange yield was in the range of 50 to 75%.

B45: KFDVINHYF (peptide)
peptide: KFDVINHYF
B45 displayed a peptide exchange yield of 20 to 50%.

B46: QITSFASGTSY (peptide)
peptide: QITSFASGTSY
B46 showed a peptide exchange yield of 50 to 75%.

B47: VSINPNSGDIY (peptide)
peptide: VSINPNSGDIY
With B47, the peptide exchange yield fell in the range of 50 to 75%.

B48: VTDGTHTDFY (peptide)
peptide: VTDGTHTDFY
Take B48: the peptide exchange yield lay in the range of 50 to 75%.

B49: EVDRNLIQY (peptide)
peptide: EVDRNLIQY
B49 yielded a peptide exchange yield of 50 to 75%.

B50: ESDEMENLLTY (peptide)
peptide: ESDEMENLLTY
For the molecule B50, the peptide exchange yield lay in the range of 50 to 75%.

B51: YPDLSELLM (peptide)
peptide: YPDLSELLM
In turn, B51 came in with a peptide exchange yield of 20 to 50%.

B52: LPAPGFLFY (peptide)
peptide: LPAPGFLFY
Turning to B52, the peptide exchange yield fell in the range of 20 to 50%.

B53: PPEANSLQGALY (peptide)
peptide: PPEANSLQGALY
B53 registered a peptide exchange yield of 20 to 50%.

B54: DLKIDLAAQY (peptide)
peptide: DLKIDLAAQY
The molecule B54 showed a peptide exchange yield of 20 to 50%.

B55: MTEGSTVNTEY (peptide)
peptide: MTEGSTVNTEY
B55: the peptide exchange yield is > 75%.

B56: KAFQELGVRY (peptide)
peptide: KAFQELGVRY
B56 showed a peptide exchange yield of 20 to 50%.

B57: PSEVPVDSHYY (peptide)
peptide: PSEVPVDSHYY
Molecule B57 came in with a peptide exchange yield of 50 to 75%.

B58: RLDEAMISY (peptide)
peptide: RLDEAMISY
Regarding B58, the peptide exchange yield is 50 to 75%.

B59: AATVKSDIY (peptide)
peptide: AATVKSDIY
For the molecule B59, the peptide exchange yield is 20 to 50%.

B60: AILHHLYFY (peptide)
peptide: AILHHLYFY
Molecule B60 had a peptide exchange yield of 10 to 20%.

B61: TEEKFVSY (peptide)
peptide: TEEKFVSY
In turn, B61 registered a peptide exchange yield of 10 to 20%.

B62: ELAAGQVVY (peptide)
peptide: ELAAGQVVY
B62 showed a peptide exchange yield of 10 to 20%.

B63: MMEMEGMY (peptide)
peptide: MMEMEGMY
Molecule B63 showed a peptide exchange yield of 50 to 75%.

B64: IVADDTVY (peptide)
peptide: IVADDTVY
Regarding B64, the peptide exchange yield is 50 to 75%.

B65: YADLLIYTY (peptide)
peptide: YADLLIYTY
As for B65, the peptide exchange yield was > 75%.

B66: TVTDGTHTDFY (peptide)
peptide: TVTDGTHTDFY
Regarding B66, the peptide exchange yield is 20 to 50%.
